# Target: SARS2 spike on transduced 293T cells (UniProt P0DTC2 14-1273)
# Assay: FACS
row,Binder,EC50 [nM]
1,"Ab 12 Fab (Fab, V domains shown) VH: EVQLVESGPGVVSPSATLFLTCSVSGGSIRTHSWNWIRQPPGKPLEWIGFIHHSGATNKNPSLKSRVTISSDTSKNEFSLTLTSVTAADTAVYYCARGPGILSYWSRGTLVTVSS VL: not shown",0.582
2,"Ab 12 IgG (antibody, V domains shown) VH: EVQLVESGPGVVSPSATLFLTCSVSGGSIRTHSWNWIRQPPGKPLEWIGFIHHSGATNKNPSLKSRVTISSDTSKNEFSLTLTSVTAADTAVYYCARGPGILSYWSRGTLVTVSS VL: not shown",0.00588
3,"Ab 12 scFv-Fc (S1-R3-T1-H7) (scFv, V domains shown) VH: EVQLVESGPGVVSPSATLFLTCSVSGGSIRTHSWNWIRQPPGKPLEWIGFIHHSGATNKNPSLKSRVTISSDTSKNEFSLTLTSVTAADTAVYYCARGPGILSYWSRGTLVTVSS VL: not shown",0.0237

# Target: biotinylated RBD (BLI sensors) (UniProt P0DTC2 319-537)
# Assay: BLI
row,Binder,Kd [nM]
1,"Ab 14 scFv-Fc (scFv, V domains shown) VH: QVQLQQSGPGLVKPSQTLSLTCAISGDSVSSNSAAWNWIRQSPARGLEWLGRTYYRSRWYNDYAISMKSRITINPDTSKNQFSLQLESVTPEDTAVYYCAREIRGFDYWGQGTLVTVSS VL: QSVLTQPPSASGSPGQSVTISCTGTSSDVGAYNFVSWYQHHPGKAPKLIIYDFNKRPSGVPDRFSGSKSGNTASLTVSGLQADDEADYYCSSYAGSNNFDVVFGGGTKLTVL",0.911
2,"Ab_17 (scFv, V domains shown) VH: QVQLVQSGGGVVQPGRSLRLSCAASGFTFDDYAMHWVRQVPGKGLEWVSGIDWNSGVIGYADSVKGRFTISRDNVKNSLYLQMNSLRTEDSALYYCAKDIGPGGSGSYYAFDIWGQGTTVTVSS VL: QSALTQPASVSGSPGQSITISCTGTSSDVGGSKYVSWYQQHPGKAPKVMIYDVTKRPSGVPDRFSGSKSGNTASLTISGLQAEDEADYYCAAWDDSLNGVVFGGGTKLTVL",0.882
3,"Ab 23 scFv-Fc (scFv, V domains shown) VH: EVQLVQSGAEVKKPGSSVKVSCRSSGGTFSTYGITWVRQAPGQGLEWMGRIIPSLGIPNYAQKFQGRVTITADTSVSTAWMELSSLESDDTAIYYCARENIDLATNDFWGQGTLVTVSS VL: QSALTQPPSASGSPGQSVTISCTGTSRDIGAYGYVSWYQQVPGKAPKLIIYEVRNRPSGVSSRFSGSKSGNTASLTISGLQAEDEADYYCSSYTSSSTLDVVFGGGTKLTVL",< 0.001
4,"Ab_16 (scFv, V domains shown) VH: QVQLVQSGGGVVQPGRSLRLSCAASGFTFSNYGMHWVRQAPGKGLEWVALIWERGSKKDYADSVKGRFTVSRDNSKNTLYLQMNSLRPEDTAVYFCAREGISMTGAEYFQHWGQGTLVTVSS VL: QSVLTQPPSVSGSPGQRVTMSCTGSSSNIGAGYDVHWYQQVPGAAPRLLIYGTNNRPSGVPDRFSGSKSGTSASLTITGLQAEDEADYYCQSYDNSLTDPYVFGTGTKVTVL",0.959
5,"Ab 15 scFv-Fc (scFv, V domains shown) VH: QVQLVQSGGGLVKPGRSLRLSCTASGFTFGDYAMSWFRQAPGKGLEWVGFIRSKAYGGTTGYAASVKGRFTISRDDSKSIAYLQMNSLKTEDTAVYYCTTADDDMDVWGKGTTVTVSS VL: NFMLTQPHSVSESPGKTVTISCTRSSGTIASNYVQWYQQRPGSAPTTVIYEDNQRPSGVPDRFSGSIDRSSNSASLTISGLTPDDEADYYCQSYDTSNHYVFGTGTKVTVL",6.61
6,"Ab_13 (scFv, V domains shown) VH: QVTLKESGPKLVKPTQTLTLTCTFSGFSLSTSGVGVGWIRQPPGKALEWLALIYWDDDKRYSPSLKSRLTIAKDTSKYQVVLTMTNMDPVDTATYYCARISGSGYFYPFDIWGQGTMVTVSA VL: NFMLTQPHSVSESPGKTVTISCTRSSGSIASNYVQWYQQRPGSAPTTVIYEDNQRPSGVPDRFSGSIDSSSNSASLTISGLKTEDEADYYCQSYDSSNLWVFGGGTKLTVL",0.922
7,"Ab 27 scFv-Fc (scFv, V domains shown) VH: QVQLVQSGTEVKKPGASVKVSCKASGYSFTGSHLHWVRQAPGQGLEWMGWINPDSGVINYAQKFQGRVTLTRDTSISTAYMELSGLRSDDTAVYYCARDKAIGYVWALDYWGQGTLVTVSS VL: QSALTQPPSVSGSPGQSVTISCTGTSSDVGTYNRVSWYQQPPGKAPKLMIYEVSNRPSGVSNRFSGSKSGNTASLTISGLQAEDEADYYCSSYTRTFTYVFGTGTKVTVL",0.906
8,"Ab 25 scFv-Fc (scFv, V domains shown) VH: QVQLVQSGGGLVQPGGSLRLSCAASGFTFSSYWMSWVRQAPGKGLEWVANIKQDGSEKYYVDSVKGRFTISRDNAKNSLYLQMNSLRAEDTAVYYCARGFYYYGAFDIWGQGTTVTVSS VL: NFMLTQPHSVSESPGKTVTISCTGSSGSIASNYVQWYQQRPGSAPTTVIYEDNQRPSGVPDRFSGSIGSSSNSASLTISGLKTEDEADYYCQSYDSSNHWVFGGGTKLTVL",0.223
9,"Ab 20 (scFv, V domains shown) VH: QVQLVQSGGGSVKPGGSLRLSCAASGYRLSDYYMHWVRQAPGKGLEWVANIKQDGSEKYYVDSVKGRFTISRDNAKNSLYLQMNSLRAEDTAVYYCARVRGWSRGYFDYWGQGTLVTVSS VL: NFMLTQPHSVSESPGKTVTISCTGSSGSIASNYVQWYQQRPGSAPTTVIYEDNQRPSGVPDRFSGSIDSSSNSASLLISGLKTEDEADYYCQSYDSSNHWVFGGGTKLTVL",1.9
10,"Ab 28 scFv-Fc (scFv, V domains shown) VH: QVTLKESGPGLVNPSETLSLTCTVSGASISNSFWSWIRQSPGKGLEWIGYTSYSGNSIYNPSLKSRLTMSIDTSKNQLSLNLRSLTAADTAVYYCARREWIKGHFDYWGQGTLVTVSS VL: NFMLTQPHSVSESPGKTVTISCTGSGGSIASNYVQWYQQRPGSAPTTVIYEDNQRPSGVPDRFSGSIDSSSNSASLTISGLKTEDEADYYCQSYDSSNPVVFGGGTKLTVL",0.166
11,"Ab_18 (scFv, V domains shown) VH: EVQLVQSGGGVVQPGRSLRVSCAASGFSFSRYGMHWVRQAPGKGLEWVAFIRHDGSKKYYADSVEGRFTISRDNSRNTVSLEMNSLRGEDTAVYYCAKDGRLEAALDDWGQGTLVTVSS VL: NFMLTQPHSMSGSAGKTVTVSCIRSSGSIANNFVQWYQQRPGSAPTTVIYEDNQRPSGVPDRFSGSIDSSSNSASLTISGLKTEDEADYYCQSYDSSNLVFGGGTRLTVL",2.31
12,"Ab 19 scFv-Fc (scFv, V domains shown) VH: EVQLVESGAEVKKPGESLKISCKGSGYSFTSYWIGWVRQMPGKGLEWMGIIYPGDSDTRYSPSFQGQVTISADKSISTAYLQWSSLKASDTAMYYCARRGDLDAFDIWGQGTMVTVSS VL: QPGLTQPPAASGTPGQRVTVSCSGASANIGSNAVSWFKQFPETAPRLLISGNTHRPSGVPDRVSGSKSGTSASLTISGLQSDDEADYYCAAWDDSLNGYVFGSGTKVTVL",0.533
13,"Ab 26 scFv-Fc (scFv, V domains shown) VH: QVQLVQSGGGLVQPGRSLRLSCAASGFTFDDYAMHWVRQVPGKGLEWVSGIDWNSGVIGYADSVKGRFTISRDNAKNSLYLQMNSLRAEDTALYYCAKDAYSYGFLGAFDIWGQGTMVTVSS VL: LPVLTQPPSVSVAPGQTASITCGGDNIRTKGVHWYQQKPGQAPLLVIYYASDRPSGIPERFSGSSSGNTATLTISRVEAGDEADYYCQVWDSSSDLVVFGGGTTLTVL",0.704
14,"Ab 21 (scFv, V domains shown) VH: QVQLVQSGGGLVQPGGSLRLSCATSGFTFDDYAMHWVRQAPGKGLEWVSGISWNSGSIGYVDSVKGRFTISRDNRNNKVYLQMNNLRAEDTAVYYCARDWWGSIDHWGLGTLVTVSS VL: QSALTQPRSVSGSPGQSVTISCTGTSSDVGGYDYVSWYQQHPGKAPKLIIYDVSKRPSGVPDRFSGSKSGNTASLTVSGLQAEDEADYYCSSYTSSSPVVFGGGTKLTVL",1.48

# From US20230374114A1 (published 2023)
